# Source: patent publication US20110117625, “Engineered Nucleases and Their Uses for Nucleic Acid Assembly” (published 2011)
# Positions count from the first letter of the chain named.
# T1: Sce7 (I-SceI D44N/D145A, non-cleaving) (UniProt P03882 P03882:1-235, D44N,D145A)
# T1 sequence: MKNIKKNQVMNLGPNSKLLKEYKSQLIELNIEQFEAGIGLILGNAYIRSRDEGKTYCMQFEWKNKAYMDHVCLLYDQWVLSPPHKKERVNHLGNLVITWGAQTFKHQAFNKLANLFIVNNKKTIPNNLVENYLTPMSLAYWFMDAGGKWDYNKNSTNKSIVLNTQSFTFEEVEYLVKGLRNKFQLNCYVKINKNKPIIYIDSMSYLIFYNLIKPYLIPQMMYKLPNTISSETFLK
# T2: I-SceI (wild type) (UniProt P03882 P03882:1-235)
# T2 sequence: T1 sequence with N44D, A145D
# T3: I-CreI D20N/Q47A (UniProt P05725 P05725:1-163, D20N,Q47A)
# T3 sequence: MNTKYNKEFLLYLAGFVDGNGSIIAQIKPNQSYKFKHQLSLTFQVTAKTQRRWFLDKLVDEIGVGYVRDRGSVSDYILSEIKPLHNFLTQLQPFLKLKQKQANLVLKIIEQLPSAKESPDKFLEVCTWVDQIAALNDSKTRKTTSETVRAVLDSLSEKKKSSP
# T4: I-SceI D44A/D145N (UniProt P03882 P03882:1-235, D44A,D145N)
# T4 sequence: T1 sequence with N44A, A145N
# B1: 80-bp I-SceI site duplex (dsDNA)
# DNA 1: GAATTCTGGTTCCGAAGCCTGTCCTGCACGCTAGGGATAACAGGGTAATAATATATGAATCCAAACTAGAGCGGGGCTCT
# DNA 2: AGAGCCCCGCTCTAGTTTGGATTCATATATTATTACCCTGTTATCCCTAGCGTGCAGGACAGGCTTCGGAACCAGAATTC
# B2: pSCI insert with I-SceI and I-CreI sites (142 bp) (dsDNA)
# DNA 1: AATTCTGGTTCCGAAGCCTGTCCTGCACGCTAGGGATAACAGGGTAATAATATATGAATCCAAACTAGAGCGGGGCTCTTGACGTTTGGCTCAAAACGTCGTGAGACAGTTTGGTCAGTTGTAAATATCTAATATTCCAATG
# DNA 2: GATCCATTGGAATATTAGATATTTACAACTGACCAAACTGTCTCACGACGTTTTGAGCCAAACGTCAAGAGCCCCGCTCTAGTTTGGATTCATATATTATTACCCTGTTATCCCTAGCGTGCAGGACAGGCTTCGGAACCAG
# Tests used:
# [1] = target: T1, Sce7 (I-SceI D44N/D145A, non-cleaving); test: EMSA; 20 mM Tris pH 9.0, 25 mM NaCl, 10 mM CaCl2, 37 C; details: tags: 6xHis N-terminal with TEV site
# Experimental: The binding affinities for the I-SceI recognition sites were determined using a gel-shift assay and are depicted in Table 3.
# To measure the dissociation constants, the binding protein of interest, at a range of concentrations between 2 and 400 nM, was incubated with 10 nM DNA substrate in 20 ìL of 20 mM Tris.HCl, pH 9.0, 25 mM NaCl, 10 mM CaCl2, 1 mM DTT, 2% glycerol, and 0.1 mg/mL BSA, for 20 minutes at 37° C. (Sce7 and CdnDI) or 42° C. (CdnDII). Two ìL of 10′ loading buffer were added to each sample, and 10 ìL of each mixture were loaded onto 6% polyacrylamide DNA retardation gels (Invitrogen), and run for 30 minutes at 175 V. The gels were stained with SYBR Gold (Invitrogen) and visualized with ultraviolet light. DNA-containing bands were quantified by densitometry as described above. Concentrations of bound and free protein were calculated from the input amount of DNA and from ratios of band intensities, and the data were fit using Origin software (Originlab, Northampton, Mass.) to the following equation: […]
# I-SceI (wild type) = target: T2, I-SceI (wild type); test: EMSA; 20 mM Tris pH 9.0, 25 mM NaCl, 10 mM CaCl2, 37 C?; details: tags: 6xHis N-terminal with TEV site (as for variants)
# I-CreI D20N/Q47A = target: T3, I-CreI D20N/Q47A; test: EMSA; 5 nM DNA, 20 mM Tris pH 9.0, 37 C; printed D2ON; details: tags: 6xHis N-terminal with TEV site; chain copies: 2; EcoRI/BamHI overhangs
# Experimental: (§1) Various concentrations of I-SceI or I-CreI (generally between 2.5 and 50 nM) were mixed with 5 nM DNA in 20 mM tris.HCl, 100 ug/mL bovine serum albumin, pH 8.0 (for I-SceI variants) or pH 9.0 (for I-CreI variants) in a total volume of 10 ìL. After incubation for 20 minutes at 37° C., 1 ìL of 10× DNA retardation gel loading buffer (Invitrogen) was added and the samples were loaded onto a 1 mm thick DNA retardation gel (Invitrogen). Electrophoresis was performed for 45 minutes at 175 Volts in 0.5× TBE buffer (Invitrogen). Gels were stained for 45 minutes with SYBR Gold stain (Invitrogen) and visualized by UV illumination. Densitometry was performed on a digital image of the gel to determine the relative intensities of the bands corresponding to bound and unbound DNA. Intensities of bound and unbound DNA were used to determine the concentrations of bound and free enzyme at each initial concentration. […] Binding affinities (dissociation constants, Kd) were determined by plotting the concentration of bound enzyme on the y-axis and the concentration of free enzyme on the x-axis for each data point and fitting the data to a rectangular hyperbola using standard nonlinear least-squares fitting procedures, using the equation y=([DNA]*x)/(Kd+x).
# I-SceI D44A/D145N = target: T4, I-SceI D44A/D145N; test: EMSA; 5 nM DNA, 20 mM Tris pH 8.0, 37 C; details: tags: 6xHis N-terminal with TEV site; EcoRI/BamHI overhangs
# Experimental: as §1
Binder,Kd [1] [nM],Kd (I-SceI (wild type)) [nM],binding result (I-CreI D20N/Q47A),binding result (I-SceI D44A/D145N)
B1,13,62,,
B2,,,binds,binds
